Reference: publication PMC5445078, “Probing the Roles of Calcium-Binding Sites during the Folding of Human Peptidylarginine Deiminase 4” (Scientific Reports, 2017)
Numbering of substitutions follows the chain as printed. Names may count otherwise.

B1: PAD4 Ca1_site mutant (Q349A/E353A/E411A) (enzyme, human, UniProt Q9UM07 1-663, looked up)
chain: MAQGTLIRVTPEQPTHAVCVLGTLTQLDICSSAPEDCTSFSINASPGVVVDIAHGPPAKKKSTGSSTWPLDPGVEVTLTMKVASGSTGDQKVQISYYGPKTPPVKALLYLTGVEISLCADITRTGKVKPTRAVKDQRTWTWGPCGQGAILLVNCDRDNLESSAMDCEDDEVLDSEDLQDMSLMTLSTKTPKDFFTNHTLVLHVARSEMDKVRVFQATRGKLSSKCSVVLGPKWPSHYLMVPGGKHNMDFYVEALAFPDTDFPGLITLTISLLDTSNLELPEAVVFQDSVVFRVAPWIMTPNTQPPQEVYACSIFENEDFLKSVTTLAMKAKCKLTICPEEENMDDQWMADEMAIGYIQAPHKTLPVVFDSPRNRGLKEFPIKRVMGPDFGYVTRGPQTGGISGLDSFGNLAVSPPVTVRGKEYPLGRILFGDSCYPSNDSRQMHQALQDFLSAQQVQAPVKLYSDWLSVGHVDEFLSFVPAPDRKGFRLLLASPRSCYKLFQEQQNEGHGEALLFEGIKKKKQQKIKNILSNKTLREHNSFVERCIDWNRELLKRELGLAESDIIDIPQLFKLKEFSKAEAFFPNMVNMLVLGKHLGIPKPFGPVINGRCCLEEKVCSLLEPLGLQCTFINDFFTYHIRHGEVHCGTNVRRKPFSFKWWNMVP
notes: human peptidylarginine deiminase 4 (PAD4), cDNA cloned into pQE30; source: E. coli JM109, purified (Ni-NTA)
B2: PAD4 Ca4_site mutant (D155A/D157A/D179A/D388A) (enzyme, human, UniProt Q9UM07 1-663, looked up)
chain: B1 chain with D155A, D157A, D179A, A349Q, A353E, D388A, A411E
notes: as for B1
B3: PAD4 Ca2_site mutant (E351A/D369A/N373A) (enzyme, human, UniProt Q9UM07 1-663, looked up)
chain: B1 chain with A349Q, E351A, A353E, D369A, N373A, A411E
notes: as for B1
B4: PAD4 Ca3_site mutant (N153A/D155A/D157A/D165A/D176A/D179A) (enzyme, human, UniProt Q9UM07 1-663, looked up)
chain: B1 chain with N153A, D155A, D157A, D165A, D176A, D179A, A349Q, A353E, A411E
notes: as for B1
B5: human PAD4 Ca3_site mutant (N153A/D155A/D157A/D165A/D176A/D179A) (enzyme, UniProt Q9UM07 1-663, looked up)
chain: B1 chain with N153A, D155A, D157A, D165A, D176A, D179A, A349Q, A353E, A411E
notes: source: E. coli JM109, purified (Ni-NTA)
B6: human PAD4 Ca1_site mutant (Q349A/E353A/E411A) (enzyme, UniProt Q9UM07 1-663, looked up)
chain: B1 chain
notes: as for B5
B7: human PAD4 Ca2_site mutant (E351A/D369A/N373A) (enzyme, UniProt Q9UM07 1-663, looked up)
chain: B1 chain with A349Q, E351A, A353E, D369A, N373A, A411E
notes: as for B5
B8: human PAD4 Ca4_site mutant (D155A/D157A/D179A/D388A) (enzyme, UniProt Q9UM07 1-663, looked up)
chain: B1 chain with D155A, D157A, D179A, A349Q, A353E, D388A, A411E
notes: as for B5

Each molecule was assayed against human PAD4 Ca5_site mutant (D168A/E252A) (human) (UniProt Q9UM07) (assay: AUC; sedimentation velocity, 20 °C, 42,000 rpm, absorbance at 280 nm, SEDFIT continuous size distribution; no urea, 10 mM Ca2+, 50 mM Tris-HCl pH 7.4; dimer to monomers).
For “human PAD4 Ca5_site mutant (D168A/E252A) (from UniProt Q9UM07 1-663) (enzyme)”, the stoichiometry N was 2.

Target: the molecule itself
Assay: AUC; sedimentation velocity at three protein concentrations (0.1, 0.3 and 0.9 mg/ml), globally fit with SEDPHAT; dimer to monomers
Work on B1 yielded a Kd of 160 ± 1 nM. For B2, the Kd was 410 ± 4 nM. Work on B3 yielded a Kd of 150 ± 1 nM. For B4, the Kd was 160 ± 1 nM.

Target: the molecule itself
Assay: AUC; sedimentation velocity, 20 °C, 42,000 rpm, absorbance at 280 nm, SEDFIT continuous size distribution; no urea, 10 mM Ca2+, 50 mM Tris-HCl pH 7.4; dimer to monomers
B5 was tested, and the “stoichiometry N” value was 2. For B6, the “stoichiometry N” value was 2. For B7, the “stoichiometry N” value was 2. For B8, the “stoichiometry N” value was 2.
